Data as given in patent US20100216715A1 (Novo Nordisk, published 2010).

Target: T1, human beta-Klotho (human, UniProt Q86Z14 1-1044)
T1 sequence (looked up): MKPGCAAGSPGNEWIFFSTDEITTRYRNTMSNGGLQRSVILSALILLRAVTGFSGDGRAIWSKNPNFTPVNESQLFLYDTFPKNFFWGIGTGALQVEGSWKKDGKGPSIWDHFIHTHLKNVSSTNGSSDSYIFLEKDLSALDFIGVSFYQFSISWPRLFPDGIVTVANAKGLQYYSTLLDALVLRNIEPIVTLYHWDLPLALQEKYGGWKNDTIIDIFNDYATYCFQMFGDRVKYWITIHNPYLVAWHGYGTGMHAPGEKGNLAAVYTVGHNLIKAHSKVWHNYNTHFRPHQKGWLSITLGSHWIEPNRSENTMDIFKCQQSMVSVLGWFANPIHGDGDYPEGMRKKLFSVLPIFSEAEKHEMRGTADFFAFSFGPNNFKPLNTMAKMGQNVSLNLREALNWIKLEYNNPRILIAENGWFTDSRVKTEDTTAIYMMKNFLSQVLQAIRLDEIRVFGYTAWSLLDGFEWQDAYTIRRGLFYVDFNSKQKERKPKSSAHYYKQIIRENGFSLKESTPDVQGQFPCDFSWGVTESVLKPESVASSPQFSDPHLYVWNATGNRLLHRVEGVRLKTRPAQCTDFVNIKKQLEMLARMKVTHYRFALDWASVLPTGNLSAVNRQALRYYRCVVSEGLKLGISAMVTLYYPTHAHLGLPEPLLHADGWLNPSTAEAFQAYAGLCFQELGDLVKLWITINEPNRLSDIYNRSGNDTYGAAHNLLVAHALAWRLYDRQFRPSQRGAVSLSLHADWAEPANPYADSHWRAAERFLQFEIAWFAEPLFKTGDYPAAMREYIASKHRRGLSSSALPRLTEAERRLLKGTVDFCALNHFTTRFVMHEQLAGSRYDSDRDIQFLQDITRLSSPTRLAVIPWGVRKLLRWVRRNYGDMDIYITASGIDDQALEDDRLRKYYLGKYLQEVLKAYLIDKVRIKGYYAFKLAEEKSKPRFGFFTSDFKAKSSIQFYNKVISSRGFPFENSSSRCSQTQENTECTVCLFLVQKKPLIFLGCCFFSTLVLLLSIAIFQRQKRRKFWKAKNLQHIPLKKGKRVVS
Experiment: cell-based or functional assay

| Molecule | pERK-HEK293-Beta-klotho without HSA [EC50 (nM)] Median Value [nM] |
| --- | --- |
| (P143V, A145E, L146E, 148aD, P149L, P150R, I152H, 153aE, 153bS, 153cD, 153dM, A154F, P155S, Q156S, P158L, D159E, V160T, G161D, S163M, L166F, S167G, M168L, 169aT, P171L, S172E, Q173A, G174V, Y179F, A180E, S181K) Met-FGF21 (ligand) | 9.5 |
| Met-FGF21 (ligand) MHPIPDSSPLLQFGGQVRQRYLYTDDAQQTEAHLEIREDGTVGGAADQSPESLLQLKALKPGVIQILGVKTSRFLCQRPDGALYGSLHFDPEACSFRELLLEDGYNVYQSEAHGLPLHLPGNKSPHRDPAPRGPARFLPLPGLPPALPEPPGILAPQPPDVGSSDPLSMVGPSQGRSPSYAS | 1.6 |
| (K56R, K59R, K69R, K122R) Gly-FGF21 derivative of Example 46 (ligand, N-alpha-1-[2-(2-{2-[2-(2-{2-[(S)-4-carboxy-4-(17-carboxy-heptadecanoylamino)-butyrylamino]-ethoxy}-ethoxy)-acetylamino]-ethoxy}-ethoxy)-acetyl] on the N-terminal alpha amino group) GHPIPDSSPLLQFGGQVRQRYLYTDDAQQTEAHLEIREDGTVGGAADQSPESLLQLRALRPGVIQILGVRTSRFLCQRPDGALYGSLHFDPEACSFRELLLEDGYNVYQSEAHGLPLHLPGNRSPHRDPAPRGPARFLPLPGLPPALPEPPGILAPQPPDVGSSDPLSMVGPSQGRSPSYAS | 3.9 |
| (K56R, K59R, K69R, K122R) Gly-FGF21 derivative of Example 54 (ligand, N-alpha1-[4-(16-1H-tetrazol-5-yl-hexadecanoylsulfamoyl)-butyryl] on the N-terminal alpha amino group) GHPIPDSSPLLQFGGQVRQRYLYTDDAQQTEAHLEIREDGTVGGAADQSPESLLQLRALRPGVIQILGVRTSRFLCQRPDGALYGSLHFDPEACSFRELLLEDGYNVYQSEAHGLPLHLPGNRSPHRDPAPRGPARFLPLPGLPPALPEPPGILAPQPPDVGSSDPLSMVGPSQGRSPSYAS | 4.2 |
| (K56R, K59R, K69R, K122R) Gly-FGF21 derivative of Example 53 (ligand, N-alpha-1-(2-{2-[2-(16-1H-tetrazol-5-yl-hexadecanoylamino)-ethoxy]-ethoxy}-acetyl) on the N-terminal alpha amino group) GHPIPDSSPLLQFGGQVRQRYLYTDDAQQTEAHLEIREDGTVGGAADQSPESLLQLRALRPGVIQILGVRTSRFLCQRPDGALYGSLHFDPEACSFRELLLEDGYNVYQSEAHGLPLHLPGNRSPHRDPAPRGPARFLPLPGLPPALPEPPGILAPQPPDVGSSDPLSMVGPSQGRSPSYAS | 6.4 |
| (S71C) Gly-FGF21 (ligand) GHPIPDSSPLLQFGGQVRQRYLYTDDAQQTEAHLEIREDGTVGGAADQSPESLLQLKALKPGVIQILGVKTCRFLCQRPDGALYGSLHFDPEACSFRELLLEDGYNVYQSEAHGLPLHLPGNKSPHRDPAPRGPARFLPLPGLPPALPEPPGILAPQPPDVGSSDPLSMVGPSQGRSPSYAS | 2.5 |
| (K56R, 59R, 69R, 122R, 168L) Gly-FGF21 derivative of Example 48 (ligand, N-alpha-1-[2-(2-{2-[2-(2-{2-[(S)-4-carboxy-4-(17-carboxy-heptadecanoylamino)-butyrylamino]-ethoxy}-ethoxy)-acetylamino]-ethoxy}-ethoxy)-acetyl] on the N-terminal alpha amino group) GHPIPDSSPLLQFGGQVRQRYLYTDDAQQTEAHLEIREDGTVGGAADQSPESLLQLRALRPGVIQILGVRTSRFLCQRPDGALYGSLHFDPEACSFRELLLEDGYNVYQSEAHGLPLHLPGNRSPHRDPAPRGPARFLPLPGLPPALPEPPGILAPQPPDVGSSDPLSLVGPSQGRSPSYAS | 4.6 |
| (K56R, K59R, K69R, K122R) Gly-FGF21 (ligand) GHPIPDSSPLLQFGGQVRQRYLYTDDAQQTEAHLEIREDGTVGGAADQSPESLLQLRALRPGVIQILGVRTSRFLCQRPDGALYGSLHFDPEACSFRELLLEDGYNVYQSEAHGLPLHLPGNRSPHRDPAPRGPARFLPLPGLPPALPEPPGILAPQPPDVGSSDPLSMVGPSQGRSPSYAS | 7.4 |
| (K56R, K59R, K69R, K122R) EEAEAGGAGGSGGS-FGF21 (ligand) EEAEAGGAGGSGGSHPIPDSSPLLQFGGQVRQRYLYTDDAQQTEAHLEIREDGTVGGAADQSPESLLQLRALRPGVIQILGVRTSRFLCQRPDGALYGSLHFDPEACSFRELLLEDGYNVYQSEAHGLPLHLPGNRSPHRDPAPRGPARFLPLPGLPPALPEPPGILAPQPPDVGSSDPLSMVGPSQGRSPSYAS | 2 |
| (K56R, K59R, K69R, K122R, L166F, S167G, M168L, 169aT, P171L, S172E, Q173A, G174V, Y179F, A180E, S181R) Gly-FGF21 (ligand) GHPIPDSSPLLQFGGQVRQRYLYTDDAQQTEAHLEIREDGTVGGAADQSPESLLQLRALRPGVIQILGVRTSRFLCQRPDGALYGSLHFDPEACSFRELLLEDGYNVYQSEAHGLPLHLPGNRSPHRDPAPRGPARFLPLPGLPPALPEPPGILAPQPPDVGSSDPFGLVTGLEAVRSPSFER | 3.3 |
| (K56R, 59R, 69R, 122R, 166F, 167G, 168L, 169aT, 171L, 172E, 173A, 174V, 179F, 180E, 181R) Gly-FGF21 derivative of Example 49 (ligand, N-alpha-1-[2-(2-{2-[2-(2-{2-[(S)-4-carboxy-4-(17-carboxy-heptadecanoylamino)-butyrylamino]-ethoxy}-ethoxy)-acetylamino]-ethoxy}-ethoxy)-acetyl] on the N-terminal alpha amino group) GHPIPDSSPLLQFGGQVRQRYLYTDDAQQTEAHLEIREDGTVGGAADQSPESLLQLRALRPGVIQILGVRTSRFLCQRPDGALYGSLHFDPEACSFRELLLEDGYNVYQSEAHGLPLHLPGNRSPHRDPAPRGPARFLPLPGLPPALPEPPGILAPQPPDVGSSDPFGLVTGLEAVRSPSFER | 1.2 |
| (S71C, D102E, N121Q, L166F, S167G, M168L, 169aT, P171L, S172E, Q173A, G174V, Y179F, A180E, S181K) Gly-FGF21 (ligand) GHPIPDSSPLLQFGGQVRQRYLYTDDAQQTEAHLEIREDGTVGGAADQSPESLLQLKALKPGVIQILGVKTCRFLCQRPDGALYGSLHFDPEACSFRELLLEEGYNVYQSEAHGLPLHLPGQKSPHRDPAPRGPARFLPLPGLPPALPEPPGILAPQPPDVGSSDPFGLVTGLEAVRSPSFEK | 1.8 |
| (A26E, K56R, K59R, K69R, D102T, N121Q, K122R, Y179F, A180E, S181R) Gly-FGF21 (ligand) GHPIPDSSPLLQFGGQVRQRYLYTDDEQQTEAHLEIREDGTVGGAADQSPESLLQLRALRPGVIQILGVRTSRFLCQRPDGALYGSLHFDPEACSFRELLLETGYNVYQSEAHGLPLHLPGQRSPHRDPAPRGPARFLPLPGLPPALPEPPGILAPQPPDVGSSDPLSMVGPSQGRSPSFER | 44 |
| (Q27E, K56R, K59R, K69R, D102T, N121Q, K122R, Y179F, A180E, S181R) Gly-FGF21 (ligand) GHPIPDSSPLLQFGGQVRQRYLYTDDAEQTEAHLEIREDGTVGGAADQSPESLLQLRALRPGVIQILGVRTSRFLCQRPDGALYGSLHFDPEACSFRELLLETGYNVYQSEAHGLPLHLPGQRSPHRDPAPRGPARFLPLPGLPPALPEPPGILAPQPPDVGSSDPLSMVGPSQGRSPSFER | 36 |
| (Q28R, K56R, K59R, K69R, D102T, N121Q, K122R, D159E, M168L, G174A, Y179F) Gly-FGF21 (ligand) GHPIPDSSPLLQFGGQVRQRYLYTDDAQRTEAHLEIREDGTVGGAADQSPESLLQLRALRPGVIQILGVRTSRFLCQRPDGALYGSLHFDPEACSFRELLLETGYNVYQSEAHGLPLHLPGQRSPHRDPAPRGPARFLPLPGLPPALPEPPGILAPQPPEVGSSDPLSLVGPSQARSPSFAS | 15 |
| (Q28R, K56R, K59R, K69R, D102T, N121Q, K122R, L166F, S167G, M168L, G170T) Gly-FGF21 (ligand) GHPIPDSSPLLQFGGQVRQRYLYTDDAQRTEAHLEIREDGTVGGAADQSPESLLQLRALRPGVIQILGVRTSRFLCQRPDGALYGSLHFDPEACSFRELLLETGYNVYQSEAHGLPLHLPGQRSPHRDPAPRGPARFLPLPGLPPALPEPPGILAPQPPDVGSSDPFGLVTPSQGRSPSYAS | 1 |
| [28R, K56R, 59R, 69R, 102T, 121Q, 122R, 168L, 179F, 180E, 181R] Gly-FGF21 derivative of Example 47 (ligand, N-alpha-1-[2-(2-{2-[2-(2-{2-[(S)-4-carboxy-4-(17-carboxy-heptadecanoylamino)-butyrylamino]-ethoxy}-ethoxy)-acetylamino]-ethoxy}-ethoxy)-acetyl] on the N-terminal alpha amino group) GHPIPDSSPLLQFGGQVRQRYLYTDDAQRTEAHLEIREDGTVGGAADQSPESLLQLRALRPGVIQILGVRTSRFLCQRPDGALYGSLHFDPEACSFRELLLETGYNVYQSEAHGLPLHLPGQRSPHRDPAPRGPARFLPLPGLPPALPEPPGILAPQPPDVGSSDPLSLVGPSQGRSPSFER | 10 |
| (Q28R, K56R, K59R, K69R, D102T, N121Q, K122R, M168L, Y179F, A180E, S181R) Gly-FGF21 (ligand) GHPIPDSSPLLQFGGQVRQRYLYTDDAQRTEAHLEIREDGTVGGAADQSPESLLQLRALRPGVIQILGVRTSRFLCQRPDGALYGSLHFDPEACSFRELLLETGYNVYQSEAHGLPLHLPGQRSPHRDPAPRGPARFLPLPGLPPALPEPPGILAPQPPDVGSSDPLSLVGPSQGRSPSFER | 29 |
